From patent US7425418B2, “Compounds that modulate processes associated with IgE production” (Rigel Pharmaceuticals, Inc., priority 2002, dated 2008)

How the values were obtained:
human RXR-β (hRXR-β) = biological target: T1, human RXR-β (hRXR-β) (Homo sapiens, UniProt P28702); assay: β-galactosidase yeast two-hybrid (YTH) interaction assay; assay type: binding
T1 construct: expressed in transfected cells; prey cDNA from a library of the A5T4 reporter cell line (BJAB B-cells)
T1 sequence (P28702 1-533): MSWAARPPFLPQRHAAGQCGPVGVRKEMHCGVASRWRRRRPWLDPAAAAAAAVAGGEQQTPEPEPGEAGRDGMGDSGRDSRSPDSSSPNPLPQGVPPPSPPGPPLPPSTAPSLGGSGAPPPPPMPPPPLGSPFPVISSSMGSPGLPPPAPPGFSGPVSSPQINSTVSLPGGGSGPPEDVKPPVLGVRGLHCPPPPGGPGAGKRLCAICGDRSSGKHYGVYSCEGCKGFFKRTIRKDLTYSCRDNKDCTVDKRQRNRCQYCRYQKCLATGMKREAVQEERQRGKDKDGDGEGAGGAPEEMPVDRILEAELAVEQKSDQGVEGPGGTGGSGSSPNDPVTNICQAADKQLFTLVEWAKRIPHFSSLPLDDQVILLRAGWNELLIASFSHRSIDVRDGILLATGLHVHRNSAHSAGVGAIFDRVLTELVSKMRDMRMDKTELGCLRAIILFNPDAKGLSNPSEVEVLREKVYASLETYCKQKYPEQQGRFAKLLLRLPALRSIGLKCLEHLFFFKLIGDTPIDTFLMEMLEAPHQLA
Experimental: Potential binding partners for peptide CL06wt were identified in a β-galactosidase yeast two-hybrid (YTH) assay using peptide CL06wt as bait and a cDNA library constructed from the A5T4 reporter cell line as prey. Binding was assessed by β-galactosidase quantification using BetaFluor (Novagen) as a substrate. A negative interaction control (no cDNA fused downstream of the GAL4 activation domain sequence) was also run. A general outline of the YTH assay is illustrated in FIG. 5A. Following clustering, filtering to remove non-specific bait hits (e.g., GFP and BFP), singletons and clusters recognized by 10 or more cDNA baits (based upon historical YTH assays), and prioritization, four prey clones were identified as hits, designated CL06-nonstim-7, CL06-stim-14, CL06-stim-15 and CL06-stim-2.
The interaction of CL06wt peptide and its mutants with the clones identified as potential targets for the peptide CL06wt was then quantified in a β-galactosidase YTH assay. The YTH assay was performed in the manner described above. A general outline of this YTH assay is illustrated in FIG. 5B. […]
The interaction of these IOF and LOF mutants with different polypeptides encoded by the clones CL06-nonstim-7, CL06-stim-14, CL06-stim-15 and CL06-stim-2 were quantified using the YTH assay described above. […]

[1] = tested on: IL-4 inducible germline ε promoter (A5T4 reporter cell line); assay: A5T4 reporter line screening assay: IL-4 induced germline ε promoter driving HBEGF2a/GFP reporter, peptide expressed retrovirally as BFP fusion, FACS; assay type: cell-based, human; details: mutants categorised relative to CL06wt
Text: Peptide CL06wt was identified by screening a retroviral library of random peptide 20-mers for the ability to inhibit IL-4 induced germline ε transcription using the HBEGF2a/diphtheria dual reporter phenotypic screening system described in WO 01/31232. To construct the random library, A5T4 reporter cells (described in more detail below) were infected with an infectious retroviral library of random peptide 20-mers (prepared as described in WO 97/27213; see also WO 01/34806 at page 39, line 36 through page 40, line 19). The retroviral vector used includes a gene encoding blue fluorescent protein (BFP) fused upstream of the region encoding the random peptide via a linker region encoding an α-helical peptide linker (expression fusion product is referred to as “BFP-peptide”). Expression of the BFP-peptide product is controlled by a promoter sensitive to the tetracyline-regulated transactivator such that expression of the BFP-peptide regulated by tetracycline (Tet) or doxycycline (Dox). […]
Following infection, the library was enriched for cells expressing peptides that inhibit IL-4 induced ε transcription as generally outlined in the top half of FIG. 3 and sorted by FACS into single cell clones. […] After 5 days, both populations were stimulated with IL-4 (final conc. 60 U/mL; PeptroTech, Inc.) and, after 3 more days, both populations were analyzed by FACS to measure BFP and GFP fluorescence. […]

[2] = tested on: germline ε promoter (A5T4 reporter line); assay: Retinoids contacted with IL-4 stimulated A5T4 reporter cells, inhibition of germline ε transcription; assay type: cell-based, human; details: 0.03 μM, 0.3 μM, 3 μM and 30 μM, FIG. 12
Experimental: IL-4 stimulated A5T4 reporter cells were contacted with varying concentrations of retinoids a-tRA, 13-cRA and 9-cRA (0.03 μM, 0.3 μM, 3 μM and 30 μM) as assessed for inhibition of germline ε transcription. DMSO and a compound known to inhibit germline ε transcription were tested as controls.

[3] = tested on: ST486 endogenous α promoter; assay: TAQMAN assay of endogenous germline α promoter transcription in TGF-β stimulated ST486 cells; assay type: cell-based; details: TGF-β 40 ng/ml, average of 3 values, p=0.6867
Experimental: The ability of peptide CL06wt to inhibit transcription of an endogenous germline ε promoter was confirmed using a TAQMAN® assay (Roche Molecular, Alameda, Calif.). Briefly, A5T4 cells were infected with retrovirus capable of expressing peptide CL06wt (prepared as described above). The cells were sorted for BFP^+ to select for infected cells. Infected cells were divided into two populations. One population was exposed to Dox (10 ng/ml). Both populations were stimulated with IL-4 (60 U/ml). After 3 days, the cells were pelleted and the pellets assayed for ε promoter transcription using a TAQMAN assay performed as described in Applied Biosystems Protocol 4310299 (available at http:www.appliedbiosystems.com). The primers and probe, which are specific for the transcription product driven by the A5T4 endogenous ε promoter, were as follows (the probe was labeled at the 5′-end with Fam and at the 3′-end with Tamra):
The assay was similar to that described in the immediately preceding section, except that ST486 cells (ATCC # CRL-1647) engineered to express the tetracycline-regulated transactivator were infected and the infected cells were stimulated with TGF-β (40 ng/ml; Peprotech). The primers and probe, which are specific for the transcription product driven by the ST486 endogenous α promoter, were as follows (the probe was labeled at the 5′-end with Fam and at the 3′-end with Tamra): […]

IgE production = details: in vitro assays, literature; cited from earlier work
germline ε transcription = details: in vitro assays, literature; cited from earlier work
[4] = biological target: T2, human retinoid X receptor beta (polypeptide encoded by prey clone CL06-stim-2) (human, UniProt P28702 1-533, limits assumed); assay: cell-based or functional assay
T2 sequence (looked up): T1 sequence (P28702 1-533)

[5] = biological target: T2, human retinoid X receptor beta …; assay: cell-based or functional assay; remark: listed apart in the source
[6] = biological target: T2, human retinoid X receptor beta …; assay: beta-galactosidase yeast two-hybrid; CL06LC is a loss of function (L) mutant, hence category L (loss of interaction) with CL06-stim-2
[7] = biological target: T2, human retinoid X receptor beta …; assay: beta-galactosidase yeast two-hybrid; CL06SY1 is a loss of function (L) mutant, hence category L (loss of interaction) with CL06-stim-2

Q: Which “binding to hRXR-β in yeast two hybrid interaction assay” value (human RXR-β (hRXR-β)) does the source give for “AALCSYAHSYAA [CL06MS, dual alanine mutant of CL06wt]” here?
A: Its value is “found to bind”.

Q: What about the “functional category based on reporter ratio” value [1] of the same molecule?
A: The value was “IOF (An increase of function mutant (IOF) shows a >50% increase in reporter function)”.

Q: For `CC1=C(/C=C/C(C)=C\C=C\C(C)=C\C(=O)O)C(C)(C)CCC1` [Peptide 9-cRA, 9-cis RA], which “inhibition of germline ε transcription” value [2] is on record?
A: The value was “inhibited germline ε transcription in a dose-dependent manner”.

Q: Which “binding to hRXR-β in yeast two hybrid interaction assay” value (human RXR-β (hRXR-β)) does the source give for “MSLCSYAHSYAA [CL06wt, 12-residue peptide identified from a retroviral random peptide library, expressed as BFP-peptide fusion]” here?
A: Its value is “found to bind”.

Q: And the “endogenous a inhibition ratio” value [3]?
A: Its value is 0.93.

Q: What does the source list for `CC1=C(/C=C/C(C)=C/C=C/C(C)=C/C(=O)O)C(C)(C)CCC1` [a-tRA, all-trans RA]?
A: inhibition of germline ε transcription [2]: inhibited germline ε transcription in a dose-dependent manner; inhibition of IgE production (IgE production): inhibit both IgE production and germline ε transcription in a dose-dependent manner; inhibition of germline ε transcription (germline ε transcription): inhibit both IgE production and germline ε transcription in a dose-dependent manner

Q: What does the source list for `CC1=C(/C=C/C(C)=C/C=C/C(C)=C\C(=O)O)C(C)(C)CCC1` [Peptide 13-cRA, 13-cis-RA]?
A: inhibition of germline ε transcription [2]: inhibited germline ε transcription in a dose-dependent manner; inhibition of IgE production (IgE production): inhibit both IgE production and germline ε transcription in a dose-dependent manner; inhibition of germline ε transcription (germline ε transcription): inhibit both IgE production and germline ε transcription in a dose-dependent manner

Q: For MSLCSYAHSYAA [peptide CL06wt (MSLCSYAHSYAA)], which “endogenous ε inhibition ratio (TAQMAN assay, +IL-4/-Dox to +IL-4/+Dox)” value [4] is on record?
A: Its value is 1.37.

Q: What about the “Reporter Ratio (A5T4 reporter line, IL-4 induced germline ε transcription)” value [5] of the same molecule?
A: Its value is 1.3.

B1: peptide CL06LC (MSAASYAHSYAA) (peptide)
peptide: MSAASYAHSYAA
notes: Dual alanine mutant of CL06wt (L, C to A, A); Yeast two-hybrid bait fusion and BFP fusion as for CL06wt
Q: Does B1 bind [6]?
A: Result: no binding

Q: What about the “Reporter Ratio (A5T4 reporter line, IL-4 induced germline ε transcription)” value [5] of the same molecule?
A: The value was 1.06.

Q: For AALCSYAHSYAA [peptide CL06MS (AALCSYAHSYAA)], which “Reporter Ratio (A5T4 reporter line, IL-4 induced germline ε transcription)” value [5] is on record?
A: Its value is 1.56.

B2: peptide CL06SY1 (MSLCAAAHSYAA) (peptide)
peptide: MSLCAAAHSYAA
notes: Dual alanine mutant of CL06wt (first S, Y to A, A); Yeast two-hybrid bait fusion and BFP fusion as for CL06wt
Q: What does the source list for B2?
A: binding result [7]: no binding; Reporter Ratio (A5T4 reporter line, IL-4 induced germline ε transcription) [5]: 1.09
